± gives the standard deviation of the averaged measurements.

This series in a line: total protein half-life in vivo (active degradation + dilution); higher = more stable protein.
Where [1] appears, read: E. coli NCM3722 delta-clpP delta-lon delta-hslV, growth: N-lim chemostat, doubling time 6 h.
[2] abbreviates: E. coli NCM3722 delta-clpP, growth: N-lim chemostat, doubling time 6 h.
[3] abbreviates: E. coli NCM3722 delta-hslV, growth: N-lim chemostat, doubling time 6 h.
[4] abbreviates: E. coli NCM3722 delta-lon, growth: N-lim chemostat, doubling time 6 h.
[5] abbreviates: E. coli NCM3722 delta-smpB, growth: N-lim chemostat, doubling time 6 h.
Setting [6] is: wild type E. coli NCM3722, growth: C-lim chemostat, doubling time 3 h.
Where [7] appears, read: wild type E. coli NCM3722, growth: C-lim chemostat, doubling time 6 h.
The mark [8] stands for this setting: wild type E. coli NCM3722, growth: N-lim chemostat, doubling time 6 h.
[9] abbreviates: wild type E. coli NCM3722, growth: N-lim chemostat, doubling time 12 h.
Setting [10] is: wild type E. coli NCM3722, growth: P-lim chemostat, doubling time 6 h.
Setting [11] is: wild type E. coli NCM3722, growth: P-lim chemostat, doubling time 12 h.
Where [12] appears, read: wild type E. coli NCM3722, growth: C-lim chemostat, doubling time 12 h.

Consider “MKLFAQGTSLDLSHPHVMGILNVTPDSFSDGGTHNSLIDAVKHANLMINAGATIIDVGGESTRPGAAEVSVEEELQRVIPVVEAIAQRFEVWISVDTSKPEVIRESAKVGAHIINDIRSLSEPGALEAAAETGLPVCLMHMQGNPKTMQEAPKYDDVFAEVNRYFIEQIARCEQAGIAKEKLLLDPGFGFGKNLSHNYSLLARLAEFHHFNLPLLVGMSRKSMIGQLLNVGPSERLSGSLACAVIAAMQGAHIIRVHDVKETVEAMRVVEATLSAKENKRYE [P0AC13]”, for which the “total protein half-life in vivo” value was determined as 4.15 ± 0.55 h under setting [1]; 3.78 ± 0.098 h under setting [2]; 4.96 ± 1.8 h under setting [3]; 4.16 ± 0.19 h under setting [4]; 3.72 ± 0.14 h under setting [5]; 2.881 ± 0.016 h under setting [6]. The “total protein half-life in vivo” value stood at 4.48 ± 0.86 h under setting [7]; 3.94 ± 0.15 h under setting [8]; 6.23 ± 0.25 h under setting [9]; 5.63 ± 0.14 h under setting [10]; 11.3 ± 0.29 h under setting [11].
For “MTDNPNKKTFWDKVHLDPTMLLILLALLVYSALVIWSASGQDIGMMERKIGQIAMGLVIMVVMAQIPPRVYEGWAPYLYIICIILLVAVDAFGAISKGAQRWLDLGIVRFQPSEIAKIAVPLMVARFINRDVCPPSLKNTGIALVLIFMPTLLVAAQPDLGTSILVALSGLFVLFLSGLSWRLIGVAVVLVAAFIPILWFFLMHDYQRQRVMMLLDPESDPLGAGYHIIQSKIAIGSGGLRGKGWLHGTQSQLEFLPERHTDFIFAVLAEELGLVGILILLALYILLIMRGLWIAARAQTTFGRVMAGGLMLILFVYVFVNIGMVSGILPVVGVPLPLVSYGGSALIVLMAGFGIVMSIHTHRKMLSKSV [P0ABG7]”, the “total protein half-life in vivo” value under setting [1] amounted to 6.32 ± 0.84 h; the “total protein half-life in vivo” value under setting [2] came out at 6.24 ± 0.34 h; the “total protein half-life in vivo” value under setting [3] worked out at 5.73 ± 0.093 h; the “total protein half-life in vivo” value under setting [4] was found to be 5.59 ± 0.48 h; the “total protein half-life in vivo” value under setting [5] is 5.99 ± 0.59 h; the “total protein half-life in vivo” value under setting [7] came to 5.94 ± 0.34 h. The “total protein half-life in vivo” value worked out at 6.47 ± 0.14 h under setting [8], 11.5 ± 1.2 h under setting [9], 5.99 ± 0.21 h under setting [10] and 11.9 ± 0.4 h under setting [11].
In the case of “MFIRAPNFGRKLLLTCIVAGVMIAILVSCLQFLVAWHKHEVKYDTLITDVQKYLDTYFADLKSTTDRLQPLTLDTCQQANPELTARAAFSMNVRTFVLVKDKKTFCSSATGEMDIPLNELIPALDINKNVDMAILPGTPMVPNKPAIVIWYRNPLLKNSGVFAALNLNLTPSLFYSSRQEDYDGVALIIGNTALSTFSSRLMNVNELTDMPVRETKIAGIPLTVRLYADDWTWNDVWYAFLLGGMSGTVVGLLCYYLMSVRMRPGREIMTAIKREQFYVAYQPVVDTQALRVTGLEVLLRWRHPVAGEIPPDAFINFAESQKMIVPLTQHLFELIARDAAELEKVLPVGVKFGINIAPDHLHSESFKADIQKLLTSLPAHHFQIVLEITERDMLKEQEATQLFAWLHSVGVEIAIDDFGTGHSALIYLERFTLDYLKIDRGFINAIGTETITSPVLDAVLTLAKRLNMLTVAEGVETPEQARWLSERGVNFMQGYWISRPLPLDDFVRWLKKPYTPQW”, the “total protein half-life in vivo” value reads like this: under setting [1], 6.645 ± 0.021 h; under setting [2], 6.81 ± 0.3 h; under setting [3], 6.17 ± 0.16 h; under setting [4], 6.55 ± 1 h; under setting [5], 5.84 ± 0.17 h; under setting [7], 5.92 ± 1.2 h. The “total protein half-life in vivo” value came out at 10.5 ± 0.13 h under setting [12]; 5.91 ± 0.13 h under setting [8]; 11.2 ± 0.95 h under setting [9]; 5.7999 ± 0.0026 h under setting [10]; 10.4 ± 0.3 h under setting [11].
As to “MNTIVFVEDDAEVGSLIAAYLAKHDMQVTVEPRGDQAEETILRENPDLVLLDIMLPGKDGMTICRDLRAKWSGPIVLLTSLDSDMNHILALEMGACDYILKTTPPAVLLARLRLHLRQNEQATLTKGLQETSLTPYKALHFGTLTIDPINRVVTLANTEISLSTADFELLWELATHAGQIMDRDALLKNLRGVSYDGLDRSVDVAISRLRKKLLDNAAEPYRIKTVRNKGYLFAPHAWE”, the “total protein half-life in vivo” value stood at 5.2 ± 1.1 h under setting [1]; 4.29 ± 0.89 h under setting [2]; 3.1 ± 0.46 h under setting [3]; 3.95 ± 0.079 h under setting [4]; 3.58 ± 0.22 h under setting [5]; 3.05 ± 0.78 h under setting [6]. The “total protein half-life in vivo” value came to 5.03 ± 0.43 h under setting [7]; 7.3 ± 0.64 h under setting [12]; 3.662 ± 0.028 h under setting [8]; 5.27 ± 0.083 h under setting [9]; 4.82 ± 0.53 h under setting [10]; 7.92 ± 0.17 h under setting [11].
As for “MKFELDTTDGRARRGRLVFDRGVVETPCFMPVGTYGTVKGMTPEEVEATGAQIILGNTFHLWLRPGQEIMKLHGDLHDFMQWKGPILTDSGGFQVFSLGDIRKITEQGVHFRNPINGDPIFLDPEKSMEIQYDLGSDIVMIFDECTPYPADWDYAKRSMEMSLRWAKRSRERFDSLGNKNALFGIIQGSVYEDLRDISVKGLVDIGFDGYAVGGLAVGEPKADMHRILEHVCPQIPADKPRYLMGVGKPEDLVEGVRRGIDMFDCVMPTRNARNGHLFVTDGVVKIRNAKYKSDTGPLDPECDCYTCRNYSRAYLHHLDRCNEILGARLNTIHNLRYYQRLMAGLRKAIEEGKLESFVTDFYQRQGREVPPLNVD [P0A847]”, the “total protein half-life in vivo” value turned out to be 5.511 ± 0.011 h under setting [1]; 5.15 ± 0.27 h under setting [2]; 4.74 ± 0.42 h under setting [3]; 4.12 ± 0.42 h under setting [5]; 3.176 ± 0.02 h under setting [6]; 6.4 ± 0.068 h under setting [7]. Moreover, the “total protein half-life in vivo” value reads like this: under setting [12], 10.9 ± 0.33 h; under setting [8], 5.08 ± 0.26 h; under setting [9], 9.05 ± 0.3 h; under setting [10], 6.03 ± 0.7 h; under setting [11], 13.7 ± 1.2 h.
“MLDNVLRIATRQSPLALWQAHYVKDKLMASHPGLVVELVPMVTRGDVILDTPLAKVGGKGLFVKELEVALLENRADIAVHSMKDVPVEFPQGLGLVTICEREDPRDAFVSNNYDSLDALPAGSIVGTSSLRRQCQLAERRPDLIIRSLRGNVGTRLSKLDNGEYDAIILAVAGLKRLGLESRIRAALPPEISLPAVGQGAVGIECRLDDSRTRELLAALNHHETALRVTAERAMNTRLEGGCQVPIGSYAELIDGEIWLRALVGAPDGSQIIRGERRGAPQDAEQMGISLAEELLNNGAREILAEVYNGDAPA”: the “total protein half-life in vivo” value was 3.85 ± 1.1 h under setting [1]; 4.24 ± 0.11 h under setting [2]; 4.0338 ± 0.0026 h under setting [3]; 4.87 ± 0.84 h under setting [4]; 4.04 ± 0.045 h under setting [5]; 2.81 ± 0.084 h under setting [6]. Further, the “total protein half-life in vivo” value runs as follows: under setting [7], 5.48 ± 0.92 h; under setting [8], 4.12 ± 0.23 h; under setting [9], 7.009 ± 0.051 h; under setting [10], 5.475 ± 0.013 h; under setting [11], 11.4 ± 0.85 h.
